Results as given in the supplement of paper PMC9170038.

Tested on: MS2 coat protein
Assay: apparent KD of MS2 coat protein; designed switch direction (-1 OFF switch, 1 ON switch): -1; higher = weaker reporter binding
Method in brief: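 The buffer was Tris-HCl pH 7.5 with KCl, MgCl2, BSA, DTT, tRNA and Tween-20. In it, SNAP-549-labelled MS2 coat protein was titrated in doubling steps from 0.7 or 1.5 nM to 3 µM over chip-bound RNA switches transcribed by stalled E. coli RNA polymerase on Illumina chips. Apparent KD is the per-design median over clusters of curve fits to normalised fluorescence.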

[1] = input ligand: microRNA oligo, concentration not stated
[2] = Eterna round: R95, input ligand: microRNA oligo, concentration not stated
[3] = Eterna round: R95, input ligand: FMN 200 uM
[4] = Eterna round: R95, input ligand: none

Sequence | apparent KD of MS2 coat protein (input ligand: FMN 200 uM) [µM] | apparent KD of MS2 coat protein [1] [µM] | apparent KD of MS2 coat protein (input ligand: none) [µM] | apparent KD of MS2 coat protein [2] [µM] | apparent KD of MS2 coat protein [3] [µM] | apparent KD of MS2 coat protein [4] [µM]
CUCGUAUUAUACAUGAGGAUCACCCAUGUGGUCACCACUCACGAGGAUAUCCCGGGAAACCGAACGGAGAAGGUGUAGAGUCAU [Eternabot solution 44] (Eterna round: R96, puzzle: Exclusion NG 3) | 0.164 | 0.163 | 0.196 | – | – | –
CUCUAGUCAGGAUAUUAGUUGCCGCCUGGCAACAGGCGGCAUGAGAAGGGACUUGAGGAUCACCCAAGUAAAAG [Rabebete] (Eterna round: R97, puzzle: Exclusion 4) | 0.0661 | – | 0.368 | – | – | –
CUCUGACAUGAGGAUCACCCAUGUGAGGAUAUGAUGCAGCAGUGGUCUACGCUGUGCAUCAGAAGGCACAUGUG (puzzle: Exclusion 1) | – | – | – | 0.124 | – | –
CUCUUACAUGAGGAUCACCCAUGUGAGGAUAUGCCCGGAGUAGCAGCAGAUCCUCUGGGCAGAAGGCACGUAGG [Eternabot (L1) Solution 98] (Eterna round: R97, puzzle: Exclusion 1) | 0.144 | – | 0.123 | – | – | –
CUCUUGUCAGGAUAUCUAAGCCACCUCCGGGCGGCCGAAUUAGAGAAGGGACAUGAGGAUCACCCAUGUAAAAG [Qumabi] (puzzle: Exclusion 4) | – | – | – | 0.138 | 0.03 | 0.174
CUGAACCCGGUAGGAUAUAUUGUGGGCGGGCGUGGAACGACAUGAGGAUCACCCAUGUGAUUGAGGUAGAAGGGCCGAGAGGUU [Excl-NG2-LRO17] (Eterna round: R96, puzzle: Exclusion NG 2) | 0.0426 | 0.031 | 0.0428 | – | – | –
CUGACGUCAGGAUAUAGCAUACACUGACUAGAUGGACAGGGUUAGAAGGGACAUGAGGAUCACCCAUGUGGUUU [Eternabot (L1) Solution 81] (Eterna round: R97, puzzle: Exclusion 4) | 0.0563 | – | 0.0505 | – | – | –
CUGAGCAGACGGAAAUCCAACAUGAGGAUCACCCAUGUCUCAAAAGCUUUUUGCUUGUCUUAUUCUCCUCUGUUCUC [Edtile] (puzzle: Sensor v3, turn-off variant 1) | – | – | – | 0.0712 | 0.0138 | 0.0129
CUGAGCAGACGGAGAUCCAACAUGAGGAUCACCCAUGUCUCAAAAGCUCUUUGCUCGUCUUAUCCUCCUCUGUUCUC [Leriedor] (puzzle: Sensor v3, turn-off variant 1) | – | – | – | 0.333 | 0.0315 | 0.0301
CUGAGCAGACGGAGAUCCAACAUGAGGAUCACCCAUGUCUCAAAAGCUUUUUGCUUGUCUUAUUCUCCUCUGUUCUC [Bieda] (puzzle: Sensor v3, turn-off variant 1) | – | – | – | 0.0355 | 0.0135 | 0.0111
CUGAGGUAGCGGUCCUAUGACAUGAGGAUCACCCAUGUACCUUGCUAUAAGCUUUUUGCUCGUCUUAUGAUUCUCGG [JL Atriat mod 7] (puzzle: Sensor v3, turn-off variant 1) | – | – | – | 0.713 | 0.246 | 0.302
CUGAGUAGUCAGGAUAUGCUGUACAAAAGUACAGCAGAAGGGAUUACAUGAGGAUCACCCAUGUGAACUUCAUG [)mei Ex6 B21] (Eterna round: R97, puzzle: Exclusion 6) | 0.681 | – | 0.652 | – | – | –
CUGAUGUGAGGAUAUCUACGCCAUGUCUUUGACAUGGCGCAAGAGAAGGCACAUGAGGAUCACCCAUGUACUUC [jl-ex4-4.41 ViennaUCT mod] (Eterna round: R97, puzzle: Exclusion 4) | 0.143 | – | 0.0279 | – | – | –
CUGCUCCGUGUAGGAUAUGCGCGCAACCAACGCGCAGAAGGACAUGAGGAUCACCCAUGUAUGUUAUUAUCACGUGAGGCGCAA [Design 32] (Eterna round: R96, puzzle: Exclusion NG 1) | 0.0257 | 0.0138 | 0.0185 | – | – | –
